This is an account of results in article PMC11169341, “Development of DNA aptamers targeting B7H3 by hybrid-SELEX: an alternative to antibodies for immuno-assays”.

Sequences and labels used below:
B1: VRF-HS_B7H3-02 (ssDNA)
DNA: TAGGGAAGAGAAGGACATATGATCGCCCCTCTTTTCGATTTCAAGCTCCTAACCCACACCTCTTTGACTAGTACATGACCACTT
B2: VRF-HS_B7H3-03 (ssDNA)
DNA: TAGGGAAGAGAAGGACATATGATATAAGTGACACATCAATCTCATGCGGATGAACCAGTGCGTTTGACTAGTACATGACCACTT
B3: VRF-HS_B7H3-04 (ssDNA)
DNA: TAGGGAAGAGAAGGACATATGATTGCCCCTGACACTTACACGCCACTATCAAGGCACACGCCATTGACTAGTACATGACCACTT
B4: VRF-HS_B7H3-01 (ssDNA)
DNA: TAGGGAAGAGAAGGACATATGATACAGCACGGTATGACGAGTCCATTGTGTGTGCAGCTCGCTAATTGACTAGTACATGACCACTT
B5: VRF-HS_B7H3-05 (ssDNA)
DNA: TAGGGAAGAGAAGGACATATGATTGAGAAGTCACGCCACTTACCTGCGCTCAAAACCTCAGAATTGACTAGTACATGACCACTT

The data set concerns the target T1, recombinant human B7-H3 His-tag (R&D 1949-B3-050) (Homo sapiens, UniProt Q5ZPR3-2 29-245).
T1 sequence: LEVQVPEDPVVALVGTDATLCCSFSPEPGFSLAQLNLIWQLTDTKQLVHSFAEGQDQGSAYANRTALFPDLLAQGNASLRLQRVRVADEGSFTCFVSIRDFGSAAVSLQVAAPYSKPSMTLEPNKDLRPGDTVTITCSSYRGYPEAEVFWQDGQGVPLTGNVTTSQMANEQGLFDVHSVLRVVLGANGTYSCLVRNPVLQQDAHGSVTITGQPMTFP
Put plainly: dot blot; FITC aptamer, 10 ng protein on membrane; ABB: AWB (composition not given) + 0.1 mg/ml yeast tRNA, 0.1 mg/ml salmon sperm DNA, 5% FBS, 1 mg/ml BSA; 60 min; 0-500 nM aptamer; flow binding assay on ice, dot-blot temperature and pH not stated. The settings on record: protein: commercial; tags: C-terminal His; label: FITC or biotin.
On to B1, for which the dissociation constant (Kd) is 24.6 ± 3.69 nM.

As to B2, the Kd was found to be 22.7 ± 3.71 nM. Turning to B3, the Kd stood at 31.5 ± 4.02 nM. Consider B4, for which the Kd turned out to be 19.2 ± 4.4 nM. Then B5, with 32.7 ± 4.56 nM.
